Test results reported in IntAct's records for PubMed 18376416.

B1: Protein XRP2 (Homo sapiens), O75695 (parent)
chain: MGCFFSKRRKADKESRPENEEERPKQYSWDQREKVDPKDYMFSGLKDETVGRLPGTVAGQQFLIQDCENCNIYIFDHSATVTIDDCTNCIIFLGPVKGSVFFRNCRDCKCTLACQQFRVRDCRKLEVFLCCATQPIIESSSNIKFGCFQWYYPELAFQFKDAGLSIFNNTWSNIHDFTPVSGELNWSLLPEDAVVQDYVPIPTTEELKAVRVSTEANRSIVPISRGQRQKSSDESCLVVLFAGDYTIANARKLIDEMVGKGFFLVQTKEVSMKAEDAQRVFREKAPDFLPLLNKGPVIALEFNGDGAVEVCQLIVNEIFNGTKMFVSESKETASGDVDSFYNFADIQMGI

Variants of: B1
Conditions: with arl3_mouse Arl3, Q9WUL7
arl3_mouse Arl3, Q9WUL7, sequence (Q9WUL7 whole entry): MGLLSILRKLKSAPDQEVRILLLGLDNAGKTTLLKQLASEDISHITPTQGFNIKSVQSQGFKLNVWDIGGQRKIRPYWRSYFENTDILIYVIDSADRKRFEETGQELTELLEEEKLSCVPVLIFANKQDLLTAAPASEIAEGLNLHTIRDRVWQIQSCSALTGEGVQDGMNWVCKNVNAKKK

Effect of a mutation on the interaction, decreasing interaction:
R120H;D121S
R118H
S28A;W29A
Q115A

Variants of: B1
Conditions: with arl3_mouse Arl3, Q9WUL7
Remark: another data set of the same source

Effect of a mutation on the interaction, decreasing interaction:
R118A
Q116A
E138G
F177A
